Paper PMC6181354, “Domain architecture of BAF250a reveals the ARID and ARM-repeat domains with implication in function and assembly of the BAF remodeling complex”

Key:
[1] = target: BAF250a ARID WT (UniProt O14497 968-1143); experiment: ITC; 25 C; dH 1.51 kcal/mol; n 1.03; ITC: 50 mM NaH2PO4 pH 6, 0.025 mM EDTA, 25 C; 20 uM DNA in cell titrated with 200 uM protein; details: protein: recombinant; tags: N-terminal 6xHis (pET28a); blunt; self-complementary palindrome, 2 copies; snap cooled on ice after heating
[2] = target: BAF250a ARID V1067G (UniProt O14497 968-1143, V1067G); experiment: ITC; 25 C; dH -0.69 kcal/mol; n 1.04; ITC: 50 mM NaH2PO4 pH 6, 0.025 mM EDTA, 25 C; 20 uM DNA in cell titrated with 200 uM protein; details: protein: recombinant; tags: N-terminal 6xHis (pET28a); blunt; self-complementary palindrome, 2 copies; snap cooled on ice after heating
BAF250a ARID V1067G, sequence (O14497 968-1143 V1067G): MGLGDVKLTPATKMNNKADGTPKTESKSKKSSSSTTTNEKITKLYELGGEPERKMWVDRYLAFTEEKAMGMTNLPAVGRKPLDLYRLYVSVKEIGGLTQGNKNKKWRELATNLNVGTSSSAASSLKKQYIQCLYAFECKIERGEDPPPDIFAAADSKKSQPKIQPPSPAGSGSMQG

BAF250a ARID WT, sequence (O14497 968-1143): as the sequence (O14497 968-1143 V1067G) above, with G100V counted along it

B1: DD12 dsDNA (Dickerson dodecamer) (dsDNA)
DNA 1: CGCGAATTCGCG
DNA 2: CGCGAATTCGCG
Kd [1]: 71.9 ± 37.7 nM | Kd [2]: 694 ± 331 nM
